# From patent US20040235717A1, “Suppression of androgen receptor transactivation through new pathways to ar and ar coactivators and repressors” (priority 2001, published 2004)
# “Also recorded” adds a separate entry of the source.
# T1: AR-Smad3 interaction (Homo sapiens, UniProt P10275)
# T1 construct: in vitro transcribed/translated [^35S]-labeled full-length AR and GST-Smad3 (2 μg); made in house; host or cells: AR: TNT-coupled reticulocyte lysate (Promega); GST-Smad3: E. coli BL21 (DE3) pLysS
# T1 sequence (P10275 1-920): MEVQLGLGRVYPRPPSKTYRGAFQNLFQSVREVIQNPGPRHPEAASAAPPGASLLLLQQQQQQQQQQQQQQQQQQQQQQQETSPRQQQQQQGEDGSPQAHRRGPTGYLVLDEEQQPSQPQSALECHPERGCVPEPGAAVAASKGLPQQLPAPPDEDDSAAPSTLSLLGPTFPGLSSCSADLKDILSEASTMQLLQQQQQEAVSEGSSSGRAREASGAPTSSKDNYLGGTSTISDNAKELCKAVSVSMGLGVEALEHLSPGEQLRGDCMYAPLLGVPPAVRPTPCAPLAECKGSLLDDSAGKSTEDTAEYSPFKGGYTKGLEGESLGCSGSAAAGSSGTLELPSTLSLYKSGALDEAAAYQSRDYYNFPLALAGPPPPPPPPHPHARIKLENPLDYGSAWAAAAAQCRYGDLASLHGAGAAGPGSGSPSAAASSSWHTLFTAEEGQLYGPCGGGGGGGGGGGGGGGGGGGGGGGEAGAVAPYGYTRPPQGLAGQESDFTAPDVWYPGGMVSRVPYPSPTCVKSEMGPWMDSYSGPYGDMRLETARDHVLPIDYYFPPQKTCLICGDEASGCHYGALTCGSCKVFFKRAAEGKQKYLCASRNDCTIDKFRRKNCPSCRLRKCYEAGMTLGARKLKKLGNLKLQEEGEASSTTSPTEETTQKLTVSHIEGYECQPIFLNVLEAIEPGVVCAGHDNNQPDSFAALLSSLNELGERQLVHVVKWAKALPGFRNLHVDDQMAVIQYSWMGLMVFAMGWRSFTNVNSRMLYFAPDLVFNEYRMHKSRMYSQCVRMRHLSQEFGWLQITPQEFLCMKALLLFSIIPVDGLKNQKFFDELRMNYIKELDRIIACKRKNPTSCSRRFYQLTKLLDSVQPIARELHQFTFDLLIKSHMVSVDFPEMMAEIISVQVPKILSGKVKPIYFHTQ
# B1: Smad4: candidate tumor suppressor, shared component of Smad signaling (protein)
# chain: MDNMSITNTPTSNDACLSIVHSLMCHRQGGESETFAKRAIESLVKKLKEKKDELDSLITAITTNGAHPSKCVTIQRTLDGRLQVAGRKGFPHVIYARLWRWPDLHKNELKHVKYCQYAFDLKCDSVCVNPYHYERVVSPGIDLSGLTLQSNAPSSMMVKDEYVHDFEGQPSLSTEGHSIQTIQHPPSNRASTETYSTPALLAPSESNATSTANFPNIPVASTSQPASILGGSHSEGLLQIASGPQPGQQQNGFTGQPATYHHNSTTTWTGSRTAPYTPNLPHHQNGHLQHHPPMPPHPGHYWPVHNELAFQPPISNHPAPEYWCSIAYFEMDVQVGETFKVPSSCPIVTVDGYVDPSGGDRFCLGQLSNVHRTEAIERARLHIGKGVQLECKGEGDVWVRCLSDHAVFVQSYYLDREAGRAPGDAVHKIYPSAYIKVFDLRQCHRQMQQQAATAQAAAAAQAAAVAGNIPGPGSVGGIAPAISLSAAAGIGVDDLRRLCILRMSFVKGWGPDYPRQSIKETPCWIEIHLHRALQLLDEVLHTMPIADPQPLD
# B2: Smad3: a downstream mediator of the TGF-β signaling pathway (protein)
# chain: MSSILPFTPPIVKRLLGWKKGEQNGQEEKWCEKAVKSLVKKLKKTGQLDELEKAITTQNVNTKCITIPRSLDGRLQVSHRKGLPHVIYCRLWRWPDLHSHHELRAMELCEFAFNMKKDEVCVNPYHYQRVETPVLPPVLVPRHTEIPAEFPPLDDYSHSIPENTNFPAGIEPQSNIPETPPPGYLSEDGETSDHQMNHSMDAGSPNLSPNPMSPAHNNLDLQPVTYCEPAFWCSISYYELNQRVGETFHASQPSMTVDGFTDPSNSERFCLGLLSNVNRNAAVELTRRHIGRGVRLYYIGGEVFAECLSDSAIFVQSPNCNQRYGWHPATVCKIPPGCNLKIFNNQEFAALLAQSVNQGFEAVYQLTRMCTIRMSFVKGWGAEYRRQTVTSTPCWIELHLNGPLQWLDKVLTQMGSPSIRCSSVS
# Experiments:
# PSA mRNA expression = PSA mRNA expression in LNCaP cells, Northern blot; assay type: cell-based; conditions: for Effect on androgen-induced PSA mRNA expression: presence of androgen
# AR transactivation [1] = test: AR transactivation with Smad3/Smad4, CAT reporters in PC3-AR2, PC-3 and LNCaP cells; assay type: cell-based, human; conditions: for Effect on androgen-activated AR transactivation: 10^−8 M DHT
# Experimental: 32. […] LNCaP cell were transfected with Smad3 or Smad4 expression vector instead of PC-3(AR)2 cells in experiments otherwise identical with those in A (B), PC-3(AR)2 cells stably transfected with AR were over-expressed with the indicated amounts of Smad3 or Smad4 or SRC-1. 3 μg of MMTV-CAT was used as a reporter plasmid in all experiments. All values represent the averages±SD of four independent experiments. […] PSA expression level was determined by Northern blotting. The probe was obtained from exon 1 of the PSA gene and labeled with [α-^32P] dCTP. A β-actin probe was used as a control for equivalent mRNA loading. (C, Table 1) The RNA samples from (A) were reverse transcribed to cDNAs and all of the samples were subjected to real-time CR using an ABI Prism 7700 Sequence Detection System (Perkin-Elmer Applied bio systems). PCR was performed using the SYBR Green PCR Core Reagents kit (Perkin-Elmer Applied Bio systems). PSA and β-actin forward, reverse primers concentrations were 2.5 μM. To reduce variability between replicates, PCR premixes which contained all reagents except for total RNA were prepared and aliquoted into 1.5 ml microfuge tubes. Specific PCR amplification products were detected by the fluorescent double-stranded DNA-binding dye SYBR Green core reagent kit. Experiments were performed with triplicates for each data point.
# (§1) 37. […] (A) PC3-AR2, SW480·C7, and PC-3 cells were transiently co-transfected with either MMTV-CAT, PSA-CAT, 5XARE-CAT, or (TAT)2-CAT (3 μg), in the presence of AR, Smad3, Smad4 or Smad3/Smad4 as indicated. Each CAT activity is presented relative to the transactivation observed in the absence of Smad3. All values represent the mean±SD of three independent experiments.
# 333. Human prostate cancer DU145 cells and PC-3 cells were maintained in Dulbecco's Minimum Essential Medium containing penicillin (25 U/ml), streptomycin (25 μg/ml), and 5% fetal calf serum. Transfections were performed using the calcium phosphate precipitation method and cells were harvested after 24 h for the chloramphenicol acetyltransferase (CAT) assay, as described previously (Kang, et al. (1999) J. Biol. Chem. 274, 8570-8576). The CAT activity was visualized and quantitated by STORM 840 (Molecular Dynamics). At least three independent experiments were carried out in each case. The SW480·C7 cells and PC-3(AR)2 cells are the gifts from Dr. Eric J. Stanbridge and Dr. T. J. Brown
# AR-Smad3 interaction = molecular target: T1, AR-Smad3 interaction; test: GST-Smad3 pull-down of AR with added Smad4; assay type: binding; conditions: GST-Smad3, [35S]-AR, purified Smad4 added
# Experimental: 34. […] Complex bound to GST columns was subjected to SDS-PAGE and autoradiography. […] (C) The indicated amounts of purified Smad4 proteins were added to fixed volumes of in vitro transcribed/translated [^35S]-labeled full-length AR and GST-Smad3 (2 μg) to test for interaction. Bands were detected using a phosphoimager. A representative blot of three independent experiments is shown.
# 335. Fusion proteins of GST-Smad3 and GST-AR, and GST protein alone were obtained by transforming expressing plasmids into BL21 (DE3) pLysS strain competent cells followed with 1 mM IPTG induction. GST-fusion proteins then were purified by Glutathione-Sepharose™ 4B (Pharmacia). The wtAR and deletion mutant AR (mtAR) proteins labeled with [^35S] were generated in vitro using the TNT-coupled reticulocyte lysate system (Promega). […] The bound proteins were separated on an 8% SDS-polyacrylamide gel and visualized by using autoradiography.
# [2] = test system: wtAR, mtARt877a, PR, VDR, ER transactivation; test: Steroid receptor transactivation with Smad3 in DU145 cells (wtAR, mtARt877a, PR, VDR, ER); assay type: cell-based, human
# AR transactivation [3] = test: AR transactivation reporter assays in SW480.7 / SW480·C7 cells; assay type: cell-based; conditions: for Effect on ARE reporter activity: SW480·C7 cells
# Experimental: as §1
# AR transactivation [4] = conditions: PC-3 and CV1 cells; Hayes et al.; cited from earlier work
Molecule,Effect on androgen-induced PSA mRNA expression (PSA mRNA expression),"Effect on Smad3-enhanced AR transactivation (AR transactivation [1]; PC3-AR2, MMTV-CAT)","Effect on androgen-activated AR transactivation (AR transactivation [1]; PC3-AR2, MMTV-CAT)",AR-Smad3 interaction (AR-Smad3 interaction),Enhancement of AR transactivation compared to ARA70 [2],Enhancement of wtAR transactivation ([2]; 10 nM DHT),Effect on transactivation of steroid receptors ([2]; 10^−8 M cognate ligand),Effect on PSA expression (PSA mRNA expression; absence of androgen),"Effect on ARE reporters (MMTV, PSA, 5X-ARE, TAT2-ARE) (AR transactivation [1]; PC-3 cells)",Effect on ARE reporter activity (AR transactivation [3]; MMTV-ARE reporter),"Effect on ARE reporter activity (AR transactivation [3]; PSA-ARE, 5X-ARE and TAT2-ARE reporters)","Effect on ligand-dependent transactivation of AR (AR transactivation [3]; SW480.7 cells, MMTV-CAT)",Effect on AR transactivation (AR transactivation [4])
B1,slight suppression of PSA mRNA expression,significantly repressed,slightly suppressed,decrease this AR-Smad3 interaction in a dose-dependent manner,–,–,–,–,–,–,–,–,–
B2,further enhance PSA expression; also recorded: further enhances DHT-induced PSA mRNA expression,–,further enhanced,–,relatively stronger enhancement effect,3-4 fold,"significantly enhance the transactivation of AR, the progesterone receptor, and VDR",failed to induce PSA expression,enhance all these reporters,only enhance MMTV-ARE reporter activity,some slight repression,increased the ligand-dependent transactivation of AR,suppress AR transactivation
